Assays:
ZO-1 = ZO-1 (UniProt Q07157); test: co-IP of FC-PEAK1, ZO-1 blot; details: reference: FC-PEAK1 wild type; sites Y724
GFP-tagged ZO-1 = target: T1, GFP-tagged ZO-1 (human, UniProt Q07157 1-1748); test: pull-down; 10 μg FC-tagged PEAK1^WT or PEAK1^Y724F purified from HEK293T held on Protein A Sepharose (blocked with 10% FBS); GFP-tagged ZO-1 at 0, 1, 2 and 4 μg, 4 h, 4 °C; immunoblot; details: both partners purified
T1 construct: ZO-1, human cDNA cloned into pTriEx-GFP; last truncation ends at 1748; also called GFP-ZO-1; GFP-tagged ZO-1 (WT); source: HEK293T, transfected, in lysate; also purified from HEK293T (anti-GFP magnetic beads, glycine pH 2.5 elution)
T1 sequence (Q07157 whole entry, the tested form may be a part): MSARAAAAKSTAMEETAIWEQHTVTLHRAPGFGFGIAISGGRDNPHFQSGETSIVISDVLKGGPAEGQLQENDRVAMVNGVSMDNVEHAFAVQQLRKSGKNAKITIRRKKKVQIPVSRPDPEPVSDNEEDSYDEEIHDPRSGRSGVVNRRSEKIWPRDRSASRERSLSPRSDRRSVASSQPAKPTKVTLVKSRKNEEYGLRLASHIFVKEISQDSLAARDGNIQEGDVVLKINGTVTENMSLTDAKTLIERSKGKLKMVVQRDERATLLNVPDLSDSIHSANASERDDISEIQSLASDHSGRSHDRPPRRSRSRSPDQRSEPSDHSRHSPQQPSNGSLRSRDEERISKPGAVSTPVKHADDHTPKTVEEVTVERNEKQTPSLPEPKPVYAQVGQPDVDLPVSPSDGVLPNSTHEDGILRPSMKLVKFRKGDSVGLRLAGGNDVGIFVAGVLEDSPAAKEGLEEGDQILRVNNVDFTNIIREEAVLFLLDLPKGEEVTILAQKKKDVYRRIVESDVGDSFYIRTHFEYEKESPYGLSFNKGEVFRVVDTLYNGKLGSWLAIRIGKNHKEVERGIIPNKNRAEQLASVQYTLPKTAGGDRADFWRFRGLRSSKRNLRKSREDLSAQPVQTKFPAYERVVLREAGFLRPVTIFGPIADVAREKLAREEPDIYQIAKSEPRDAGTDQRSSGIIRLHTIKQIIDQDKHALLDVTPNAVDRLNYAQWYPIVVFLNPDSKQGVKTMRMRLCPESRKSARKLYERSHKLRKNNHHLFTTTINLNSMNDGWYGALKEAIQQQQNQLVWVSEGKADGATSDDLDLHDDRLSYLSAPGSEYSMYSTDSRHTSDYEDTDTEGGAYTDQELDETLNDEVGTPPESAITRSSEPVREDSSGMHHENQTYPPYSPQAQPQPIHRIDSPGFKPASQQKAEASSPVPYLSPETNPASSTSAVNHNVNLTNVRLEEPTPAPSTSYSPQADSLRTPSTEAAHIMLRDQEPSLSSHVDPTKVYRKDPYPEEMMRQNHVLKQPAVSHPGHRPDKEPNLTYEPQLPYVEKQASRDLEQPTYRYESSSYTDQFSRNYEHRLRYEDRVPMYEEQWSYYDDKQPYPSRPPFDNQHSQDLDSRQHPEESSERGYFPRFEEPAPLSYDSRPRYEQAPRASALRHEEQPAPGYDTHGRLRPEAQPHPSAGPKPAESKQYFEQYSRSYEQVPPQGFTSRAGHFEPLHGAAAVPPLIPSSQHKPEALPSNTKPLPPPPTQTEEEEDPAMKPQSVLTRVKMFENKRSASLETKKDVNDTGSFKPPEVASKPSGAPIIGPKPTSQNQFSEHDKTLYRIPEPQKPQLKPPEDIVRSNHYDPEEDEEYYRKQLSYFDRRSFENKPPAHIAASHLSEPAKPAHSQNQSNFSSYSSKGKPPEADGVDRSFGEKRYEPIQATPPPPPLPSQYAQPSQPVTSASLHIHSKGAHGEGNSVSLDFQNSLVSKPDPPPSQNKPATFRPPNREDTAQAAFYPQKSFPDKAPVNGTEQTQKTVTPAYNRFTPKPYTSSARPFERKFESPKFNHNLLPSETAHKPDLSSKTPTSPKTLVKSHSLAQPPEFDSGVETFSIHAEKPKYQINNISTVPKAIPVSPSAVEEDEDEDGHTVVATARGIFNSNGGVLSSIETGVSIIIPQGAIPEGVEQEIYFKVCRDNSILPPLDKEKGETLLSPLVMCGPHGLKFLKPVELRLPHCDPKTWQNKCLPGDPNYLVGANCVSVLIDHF

binding against the reference (ZO-1) | binding result (GFP-tagged ZO-1) | Molecule
weaker |  | PEAK1 (from UniProt Q9H792) FC-PEAK1 Y724F
 | binds | FC-tagged PEAK1^WT (Fc fusion, human, UniProt Q9H792 1-1746, looked up, PEAK1, human cDNA cloned into pTriEx-FC; also called FC-PEAK1; FC-PEAK1^WT; source: HEK293T, transfected, in lysate; also purified from HEK293T (protein A sepharose, glycine pH 2.5 elution)) MSACNTFTEHVWKPGECKNCFKPKSLHQLPPDPEKAPITHGNVKTNANHSNNHRIRNTGNFRPPVAKKPTIAVKPTMIVADGQSICGELSIQEHCENKPVIIGWNRNRAALSQKPLNNNNEDDEGISHVPKPYGNNDSAKKMSDNNNGLTEVLKEIAGLDTAPQIRGNETNSRETFLGRINDCYKRSLERKLPPSCMIGGIKETQGKHVILSGSTEVISNEGGRFCYPEFSSGEESEEDVLFSNMEEEHESWDESDEELLAMEIRMRGQPRFANFRANTLSPVRFFVDKKWNTIPLRNKSLQRICAVDYDDSYDEILNGYEENSVVSYGQGSIQSMVSSDSTSPDSSLTEESRSETASSLSQKICNGGLSPGNPGDSKDMKEIEPNYESPSSNNQDKDSSQASKSSIKVPETHKAVLALRLEEKDGKIAVQTEKEESKASTDVAGQAVTINLVPTEEQAKPYRVVNLEQPLCKPYTVVDVSAAMASEHLEGPVNSPKTKSSSSTPNSPVTSSSLTPGQISAHFQKSSAIRYQEVWTSSTSPRQKIPKVELITSGTGPNVPPRKNCHKSAPTSPTATNISSKTIPVKSPNLSEIKFNSYNNAGMPPFPIIIHDEPTYARSSKNAIKVPIVINPNAYDNLAIYKSFLGTSGELSVKEKTTSVISHTYEEIETESKVPDNTTSKTTDCLQTKGFSNSTEHKRGSVAQKVQEFNNCLNRGQSSPQRSYSSSHSSPAKIQRATQEPVAKIEGTQESQMVGSSSTREKASTVLSQIVASIQPPQSPPETPQSGPKACSVEELYAIPPDADVAKSTPKSTPVRPKSLFTSQPSGEAEAPQTTDSPTTKVQKDPSIKPVTPSPSKLVTSPQSEPPAPFPPPRSTSSPYHAGNLLQRHFTNWTKPTSPTRSTEAESVLHSEGSRRAADAKPKRWISFKSFFRRRKTDEEDDKEKEREKGKLVGLDGTVIHMLPPPPVQRHHWFTEAKGESSEKPAIVFMYRCDPAQGQLSVDQSKARTDQAAVMEKGRAENALLQDSEKKRSHSSPSQIPKKILSHMTHEVTEDFSPRDPRTVVGKQDGRGCTSVTTALSLPELEREDGKEDISDPMDPNPCSATYSNLGQSRAAMIPPKQPRQPKGAVDDAIAFGGKTDQEAPNASQPTPPPLPKKMIIRANTEPISKDLQKSMESSLCVMANPTYDIDPNWDASSAGSSISYELKGLDIESYDSLERPLRKERPVPSAANSISSLTTLSIKDRFSNSMESLSSRRGPSCRQGRGIQKPQRQALYRGLENREEVVGKIRSLHTDALKKLAVKCEDLFMAGQKDQLRFGVDSWSDFRLTSDKPCCEAGDAVYYTASYAKDPLNNYAVKICKSKAKESQQYYHSLAVRQSLAVHFNIQQDCGHFLAEVPNRLLPWEDPDDPEKDEDDMEETEEDAKGETDGKNPKPCSEAASSQKENQGVMSKKQRSHVVVITREVPCLTVADFVRDSLAQHGKSPDLYERQVCLLLLQLCSGLEHLKPYHVTHCDLRLENLLLVHYQPGGTAQGFGPAEPSPTSSYPTRLIVSNFSQAKQKSHLVDPEILRDQSRLAPEIITATQYKKCDEFQTGILIYEMLHLPNPFDENPELKEREYTRADLPRIPFRSPYSRGLQQLASCLLNPNPSERILISDAKGILQCLLWGPREDLFQTFTACPSLVQRNTLLQNWLDIKRTLLMIKFAEKSLDREGGISLEDWLCAQYLAFATTDSLSCIVKILQHR
